Test results from the nanobody polyreactivity screen of Harvey et al. (2022).

Test: yeast display, Sf9 membrane polyspecificity reagent, FACS + sequencing; frameworks hold sequencing errors
Method in brief: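 Sorting gates, low and high (top ~1%), were placed on anti-HA fluorescence to track expression and on streptavidin fluorescence to track reagent binding. A clone's polyreactivity label is taken from the gate it came out of. The reagent was 10% biotinylated, detergent-solubilized Sf9 membrane, applied for 1 hour at 4 °C to galactose-induced yeast display cells.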

Row | Sequence | polyreactivity (PSR sort gate)
1 | QVQLVESRGGLVQAGGSLRLSCAASGRIFNVYAMGWYRQAPGKERELVAGISGSGGRTYYADSVKGRFTISRDNAKNTVYLQMNSLKPEDTAVYYCNTVRHYSSWGQGTQVTVSS | high polyreactivity
2 | QVQLVESGGRLVQAGGSLRLSCAASGFIYTPNTMGWYRQAHRKERELVAAITTNGGRTYYADSVKGRFTISRDNAKNTVYFQMNSVKPEDTAVYYCAARYVSSFGLHAQVWSYYYWGLGTQVTVSS | high polyreactivity
3 | QVQLVESGGGLVQAGGSLRLSCAASGFTLQRYAMGWYRQAPGKEREFVAVITRSGGSTYYADSVKGRFTISRDNAKNSVYLQMNSLKPEDTAVYDCAKREFPTTRNRGRYDYWGQGTQVTVSS | high polyreactivity
4 | QVQLVESGGGLVQAGGRLRLSCAASGFNFHYYAMGWYRQAPGKERELVAAISWSSGRTYYADSVKGRFTISRDNEKNTVYLQMNSLKPEDTAVYYCAASSYNRGDYWGQGTQVTVSS | high polyreactivity
5 | QVQLVESGGGLVQAGCSLRLSCAASGSTFGENAMGWYRQAPGKERELVAVITSDTSTYYADSVKGRFTISRDNAKNTVYLQMNSLKPEDTAVYYCAADWGGLWFWYEYWGQGTQVTVSS | low polyreactivity
6 | QVQLVESGGGLVQAGGSLRLSCAASGSTFSVNAMGWYRQAPGKEREFVARITWRGGSTYYADSVKRRFTISRDNAKNTVYLPMNSLKPEDTAVYYCAATLRYWWRSSYEDYYWGQGTQVTVSS | low polyreactivity
7 | QVQLVESGGGLVQAGGSLRLSCAASGRTFVGYAMGWYRQAPGKERELVAAISGSGVRTYYADSVKGRFTISRDNAKNTVYLQMNSLKPEDTAVYYCAVRQGWYNFRYDYWGQGTQVTVSS | high polyreactivity
8 | QVQLVESGGGLVQAGGSLRLSCAGSGNIFSTYAMGWYRPAPGKVRELVASISENGGSTYYADSVKGRFTISRDNAKNTVYLQMNSLKPEDTAVYYCNADAYVYFDDGDYWGQGTQVTVSS | low polyreactivity
9 | QVQLEESGGGLVQAGGSLRLTCAASGSTSQIYAMGWYRQAPGKERELVAAINGVGSTNYADSVKGRFTISRDNAKNTVYLQMNSLKPEDTAVYYCAADGTALHEYLGDYDYWGQGTQVTVSS | low polyreactivity
10 | QVQLVESGGGLVQAGGSLRLSCAASGLTFTHYARGWYREAPGKERELVAAISRSGGTTYYADSVKGRFTISRDNAKNTLYFQMNSLKPEDTAVYYCAARWWYRYNYDYWGLGTQVTVSS | high polyreactivity
11 | QVQLVESGGGLVQAGGSLRISCAASGRTFGANAMGWYRQAPGKERELVASISRSGGTTYYADSVKGRFTISRDNAKNTVYLQMNSLKPEDTAVYYCAAQYVRYGHYYWGQGTQVTVSS | high polyreactivity
12 | QVQHVESGGGLVQAGGSLRLSCAASGFIFDRYAMGWYRQAPGKERELVAAISSGGSTYYADSVKGRFTISRDNAKNTVYLQMNSLKPEDTAVYYCAAESWLNFIYEYDYWGQGTQVTVSS | low polyreactivity
13 | QVQLVESGAVLVQAGGSLRLSCAASGGTFSGYTMGWYRQAPGKERELVAAITRSGSSTYYADSVKGRFTISRDNAKHTVYLQMNSLKPEDTAVSYCAATYPTSSSSYYNRYYWGQGTQVTVSS | high polyreactivity
14 | QVQLVESGGGLVQAGGSLRLSCAASGSTSGKNAMGWYRQAPGKERELVAAIRNSGGTTYYADSVKGRFTISRDNAKNTVYLQMNSLKPEDTAVYYCATRYYLKFLDGYNYWGQGTQVTVSS | high polyreactivity
15 | QVQLVESGGGLVQAGGSLRLSCAASGSIFSSNAMGWYRQAPGKERELVASIRRGGSTYYADSVKGRFTISRDNAMNTVYLQMNSLKPEDTAVYDCARRYVPWYATYDHWGQGTQVTVSS | high polyreactivity
16 | QVQLVESGGGLVQAGGSLRLSCAATGRIFVNAMGWYRQAPGKERELVAAINTRGGSTYYADSVKGRFTISRDNAKNSVYLQMNSLKPEDTAVYYCAARFYTSSRYNYWGQGTQVTVSS | high polyreactivity
17 | QVQLVESGGGLVQAGGSLRLICAASGSIFQPYAMGWYRQAPGKERELVAAINGRGGSTHYADSVKGRFTISRDNAKNTVYLQMNSLKPEDTAVYYCAARYYRDYRWYTYAYDYWGQGTQVTVSS | high polyreactivity
18 | QVQLVESGGALVQAGGSLRLSCAASGSIFIHYAMGWSRQAPGKERELVAAISRTGSTYYADSVKGRFTISRDNAKNTVYLQMNSLKPLDTAVYYCAKRISTRRYDFWGQGTQVTVSS | low polyreactivity
19 | QVQLVESGGGLVQAGGSLRLSCAASGRTFRGYAMGWYRQAPGKERELVAAITRSGGSTYADSVKGRFTISRDNAKNTFYLQMNSLKPEDTAVYYCAADRGYKYYYWGQGTQVTVSS | high polyreactivity
20 | QVQLVESGGGLVQAGGSLRLSCAASGSTFKRYAMGWYRQAPGKERELVASISSGGSTNYADSVKGRFTISRDNAKNTVYLQMNSLKPEDTAVYYCATYLVTGGGLNVRYDYWGQGTQVTVSS | high polyreactivity
21 | QVQLVEAGGGLVQAGGSLRLSCAASGITYSKYANGWYIQAPWKERELVAAISQRGGSTYYADSVKGRFTISRDNAKNTVYLQMNSLKPEDTAVYYCNAEFYWSIIAYEYWGQGTQVTVSS | high polyreactivity
22 | QGQLVESGGGLVQAGGSLRLSCAASGFIFSKYAMGWYRQAPGKERELVAAISYRTVRTYYADSVKGRFTISRDNAKNTVDLQMNSLKPEDTAVYYCAADSRYWLYDYWGQGTQVTVSS | high polyreactivity

Row | Sequence | polyreactivity (PSR sort gate)
23 | QVQLVESGGGLVQAGGSLRLICAAWSIFYLNAMGWYRQAPGKERELVAAISSAGSTYYADSVKGRFTISRDNAKNSVYLQMNSLKPEDTAVYYCAAYWYDSPGVTEIWYDYWGQGTQVTVSS | low polyreactivity
24 | QVQLQECGGGLVQAGGSLRLSCAARGNIFDADIMGWYRQAPGKESELLASVTDGGSTNYADSVKGRFTISRDNAKNTVYLQMNSLKPEDSAVYYCAAIVYPDILTYFDYDYDYFYWGQGTQVTVGS | low polyreactivity
25 | QVQLVESGGGLVQAGGTLRLSCAASGIIFDRNVMGWYRQAPGKERELVAAITRNGGNTYYADSVKGRFTISRDNAKNTVYLQLNSLKPEDTAVYYCNAKYWPFSRWYYFWGQRTQVTVSS | high polyreactivity
26 | QVQLQESGGGQVQAGGSLRLSCAASGTISDSGLMGWYRQAPGKERELVAGISSGGITNYADSVKGRFTISRDNAKNTVYLQMNILKPEDTAVYWGQGTQVTVSI | low polyreactivity
27 | QVQLVESGGGLVQAGGSLRLSCAASGRTFLYNAMGWYRQAPGKERELVAGITQSGSSTYYADSVKGRFTISRDNAKNTVYLQMNSLKPEDTAVYYCAKVLYRRGYKFDYWGQGTQVTVSS | low polyreactivity
28 | QVQLVESGGGLVQAGGSLRISCAASGSTFDPNVMGWYRQAPGKERELVAVITTTGVSTYYADSVKGRFTISRDNAKNTVYLQMNSLKPEETAVYYCNAKWYWYLTRDDFRYRYTYDYWGQGTQVTVSS | low polyreactivity
29 | QVQRVESGGGLVQAGGSLRLSCAASGSTFNRNALGWYRPEPGKERELVAAISWRGDSTSYADSVKGRFTITRDNAKNTVYLQMNSLKPEDTAVYNCASAHAYAFYRYWYVPSEYNYWGQGTQVTVSS | low polyreactivity
30 | HVQLVESGGGLVQAGGSLRLSCAASGLIFKRYAIGGYRKAPGKERELVAAISYSGGSTYYEDSVKGRFTISRDYAKNTVYLQMNSLKPEDTAVYYCNAQSYRSDSAYHYKYDYWGQGTQVTVSS | high polyreactivity
31 | QVQLVESGGGLVQAGGSLRLSCAASGRTFGYYAMGWYRQAPGKERELVASISSSGGNTYYADSVKGRFTISRDNAKNTVYLQMNSLKPEDTAVYYCAATYGWWPRDYYYWGQGTQVTVSS | high polyreactivity
32 | QVQLVESGGGLVQAGGSLRLSCAASGSIFIPNAMGWYRQAPGTERELVAAISLSDTTTYYADSVKGRFTISRDNAKNTVYLQMNSLKPEDTAVYYCAADYWFYPTSPDMDYWGQGTQVTVSS | low polyreactivity
33 | QVQLVESGGGLVQAGGSLRLSCAASGGIFHGNTMGWYRQAPGKERELVAAISNSGGSTYYADSVKGRFTISRDNAKNTVYLQMNSLKPEDTAVYYCARVGYKLYQYKYDYWGQGTQVTVSS | low polyreactivity
34 | QVQLVESGGGLVQAGGSLRLSCAASGSTFYFYAMGWYRQAPGKERELVATISYSDGSTYYADSVKGRFTISRDNAKNTVYLQMNSLKPEDSAVYYCAKGSNDWVNFGYDYWGQGTQVTVSS | low polyreactivity
35 | QVQLVESGGGLVQAGGSRRLSCAASGSTFSSYAKGWYRQAPGQERELVAAISSSGSRTYYADSVKGRFTISRDNAKNTVYLQMNSLKPEDTAVYYCAADYYYNTKLDYWGQGSQVTVSS | high polyreactivity
36 | QVQLVESGGGLVQAGGSLRLSCAASGSTIIYNTMGWYRQAPGKERELVARITWSGGSTSYADSVKGRFTISRDNAKNTVYLQMNSLKPEDTAVYYCNRRVQARRYRYDYWGQGTQVTVSS | high polyreactivity
37 | QVPLVESGGGLVQAGVSLRLSCAASGSIFYLYAMGWYRQAPGKERELVAAISRSGASTYYADSVKGRFTISRDNAKNTVYLQMNSQKPEDTAVYYCAAYKIWGRVRYDYWGQGTQVTVSS | low polyreactivity
38 | QVQLVESGGGLVQAGGSLRLSCAASGRTFAWYTMGWSRQEPGKERELVAAISGSGGSTYYADSVKGRFTISRDNAKNTVYLQMNSLKPEDTAVYYCARRVDSYYGHTRYYYWGQGTQVTVSS | high polyreactivity
39 | QVQLVESGGGLVQAGGSLRLSCAASGSIFAYNAMGWYRQAPGKERELVASISTGDSTNYADSVKGRFTISRENAKNTDYLQMNSMKPEDTAVYYCNADSYPYYVYGSNVYWGQGSQVTVSS | low polyreactivity
40 | QVQLVESGGGLVQAGGSLRLRCAASGRIFRYYAMGWYRQAPGKARELVARITSSGSTYYADSVKGRFTISRDNAKNTVYLQMNSLKPEDTAVYYCAADWYRGGIVDSWGQGTQVTVSS | high polyreactivity
41 | QVQLVESWGGLVQAGGSLRLSCAASGRIFHRNTMGWYRQAPGKERELVAAIRSGSRTYYADSVKGRFTISRDNAKNTVYLQMNSLKPEDTAVYDCATTFGTPRYDYWGQGTQVTVSS | high polyreactivity
42 | QVQLVESGGGLVQEGGSLRLSCAASGRTFYTNAMGWYRPAPGKERELVAVISRGGTTFYADSVKGRFTISRDNAKNTVYLQMNSLKPEDTAVYYCAKQRPSGDSSSQMGSWGQGTQVTVSS | low polyreactivity
43 | QVHLVESGGGLVQAGGSLRLSCAASGFTFSYYAMGWYRQAPGKERELVAVISDRGGITYYADSVKGRFTISRDNAKNTVYLQMISLKPEDTAVYYCAAQNPRYNYRYYYWGQGTQVTVSS | low polyreactivity
